T1: NRP1 trap AC (human, UniProt O14786 22-856)
T1 construct: a1a2-b1b2-c with D320K (held in the entry); Signal peptide not trimmed
T1 sequence: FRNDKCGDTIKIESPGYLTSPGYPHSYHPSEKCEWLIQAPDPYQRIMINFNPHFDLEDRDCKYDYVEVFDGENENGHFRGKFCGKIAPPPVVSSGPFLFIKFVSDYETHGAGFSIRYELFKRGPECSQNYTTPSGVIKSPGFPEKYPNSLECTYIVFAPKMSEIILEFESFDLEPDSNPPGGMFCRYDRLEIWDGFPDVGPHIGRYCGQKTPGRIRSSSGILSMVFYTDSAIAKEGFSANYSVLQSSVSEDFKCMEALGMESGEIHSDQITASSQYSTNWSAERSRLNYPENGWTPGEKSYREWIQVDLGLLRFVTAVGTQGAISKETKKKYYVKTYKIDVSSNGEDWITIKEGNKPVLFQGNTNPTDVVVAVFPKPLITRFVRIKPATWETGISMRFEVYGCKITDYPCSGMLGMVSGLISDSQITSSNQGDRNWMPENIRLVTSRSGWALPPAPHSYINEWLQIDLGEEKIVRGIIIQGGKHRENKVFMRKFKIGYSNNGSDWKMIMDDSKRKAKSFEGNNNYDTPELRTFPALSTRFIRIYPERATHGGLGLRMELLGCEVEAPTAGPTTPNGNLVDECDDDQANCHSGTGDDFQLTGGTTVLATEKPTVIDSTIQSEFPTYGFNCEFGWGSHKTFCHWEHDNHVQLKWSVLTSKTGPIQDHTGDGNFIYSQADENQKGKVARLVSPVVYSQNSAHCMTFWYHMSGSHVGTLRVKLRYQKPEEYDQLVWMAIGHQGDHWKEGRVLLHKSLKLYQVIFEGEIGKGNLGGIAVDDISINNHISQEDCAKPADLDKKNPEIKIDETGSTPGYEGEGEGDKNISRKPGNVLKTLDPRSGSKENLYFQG

T2: NRP1 trap G (human, UniProt O14786 22-856)
T2 construct: a1a2-b1b2-c; The mature trap lacks the signal peptide (about aa 1-21, may vary)
T2 sequence: T1 sequence with K299D

T3: NRP1 trap R (human, UniProt O14786 22-856)
T3 construct: a1a2-b1b2-c with Y297A (the entry is the trap itself, so no substitution is applied)
T3 sequence: T1 sequence with Y276A, K299D

B1: NRP1 trap AF (receptor)
chain: FRNDKCGDTIKIESPGYLTSPGYPHSYHPSEKCEWLIQAPDPYQRIMINFNPHFDLEDRDCKYDYVEVFDGENENGHFRGKFCGKIAPPPVVSSGPFLFIKFVSDYETHGAGFSIRYELFKRGPECSQNYTTPSGVIKSPGFPEKYPNSLECTYIVFAPKMSEIILEFESFDLEPDSNPPGGMFCRYDRLEIWDGFPDVGPHIGRYCGQKTPGRIRSSSGILSMVFYTDSAIAKEGFSANYSVLQSSVSEDFKKITDYPCSGMLGMVSGLISDSQITSSNQGDRNWMPENIRLVTSRSGWALPPAPHSYINEWLQIDLGEEKIVRGIIIQGGKHRENKVFMRKFKIGYSNNGSDWKMIMDDSKRKAKSFEGNNNYDTPELRTFPALSTRFIRIYPERATHGGLGLRMELLGCEVEAPTAGPTTPNGNLVDECDDDQANCHSGTGDDFQLTGGTTVLATEKPTVIDSTIQSEFPTYGFNCEFGWGSHKTFCHWEHDNHVQLKWSVLTSKTGPIQDHTGDGNFIYSQADENQKGKVARLVSPVVYSQNSAHCMTFWYHMSGSHVGTLRVKLRYQKPEEYDQLVWMAIGHQGDHWKEGRVLLHKSLKLYQVIFEGEIGKGNLGGIAVDDISINNHISQEDCAKPADLDKKNPEIKIDETGSTPGYEGEGEGDKNISRKPGNVLKTLDPRSGSKENLYFQG
notes: a1a2b2c, deleted aa 281-430 and 857-923; The mature column prints 'About 22-429 and 431-856', against 1-280 and 431-856 in the column with signal peptide; Signal peptide not trimmed
B2: NRP1 trap X (receptor)
chain: FRNDKCGDTIKIESPGYLTSPGYPHSYHPSEKCEWLIQAPDPYQRIMINFNPHFDLEDRDCKYDYVEVFDGENENGHFRGKFCGKIAPPPVVSSGPFLFIKFVSDYETHGAGFSIRYELFKRGPECSQNYTTPSGVIKSPGFPEKYPNSLECTYIVFAPKMSEIILEFESFDLEPDSNPPGGMFCRYDRLEIWDGFPDVGPHIGRYCGQKTPGRIRSSSGILSMVFYTDSAIAKEGFSANYSVLQSSVSEDFKCMEALGMESGEIHSDQITASSQASTNWSAERSRLNYPENGWTPGEDSYREWIQVDLGLLRFVTAVGTQGAISKETKKKYYVKTYKIDVSSNGEDWITIKEGNKPVLFQGNTNPTDVVVAVFPKPLITRFVRIKPATWETGISMRFEVYGCKITDYPEVEAPTAGPTTPNGNLVDECDDDQANCHSGTGDDFQLTGGTTVLATEKPTVIDSTIQSEFPTYGFNCEFGWGSHKTFCHWEHDNHVQLKWSVLTSKTGPIQDHTGDGNFIYSQADENQKGKVARLVSPVVYSQNSAHCMTFWYHMSGSHVGTLRVKLRYQKPEEYDQLVWMAIGHQGDHWKEGRVLLHKSLKLYQVIFEGEIGKGNLGGIAVDDISINNHISQEDCAKPADLDKKNPEIKIDETGSTPGYEGEGEGDKNISRKPGNVLKTLDPRSGSKENLYFQG
notes: a1a2-b1-c with Y297A (held in the entry); Signal peptide not trimmed
B3: SEMA3A-FC (R&D systems) (Fc fusion)
chain: YQNGKNNVPRLKLSYKEMLESNNVITFNGLANSSSYHTFLLDEERSRLYVGAKDHIFSFDLVNIKDFQKIVWPVSYTRRDECKWAGKDILKECANFIKVLKAYNQTHLYACGTGAFHPICTYIEIGHHPEDNIFKLENSHFENGRGKSPYDPKLLTASLLIDGELYSGTAADFMGRDFAIFRTLGHHHPIRTEQHDSRWLNDPKFISAHLISESDNPEDDKVYFFFRENAIDGEHSGKATHARIGQICKNDFGGHRSLVNKWTTFLKARLICSVPGPNGIDTHFDELQDVFLMNFKDPKNPVVYGVFTTSSNIFKGSAVCMYSMSDVRRVFLGPYAHRDGPNYQWVPYQGRVPYPRPGTCPSKTFGGFDSTKDLPDDVITFARSHPAMYNPVFPMNNRPIVIKTDVNYQFTQIVVDRVDAEDGQYDVMFIGTDVGTVLKVVSIPKETWYDLEEVLLEEMTVFREPTAISAMELSTKQQQLYIGSTAGVAQLPLHRCDIYGKACAECCLARDPYCAWDGSACSRYFPTAKRRTRRQDIRNGDPLTHCSDLHHDNHHGHSPEERIIYGVENSSTFLECSPKSQRALVYWQFQRRNEERKEEIRVDDHIIRTDQGLLLRSLQQKDSGNYLCHAVEHGFIQTLLKVTLEVIDTEHLEELLHKDDDGDGSKTKEMSNSMTPSQKVWYRDFMQLINHPNLNTMDEFCEQVWKRDRKQRRQRPGHTPGNSNKWKHLQENKKGRNRRTHEFERAPRSV
notes: Bought reagent; not shown: Fc portion of the bought fusion, detected with anti-human IgG

Assay in all cases: saturation binding, trap coated on plate, SEMA3A-FC titrated, anti-human IgG-HRP chemiluminescence
Assay [1] has as its target B3. On the procedure:
(§1) Sema 3A and AP-VEGF₁₆₅ binding assays. Saturation curves for the determinations of KD of binding to SEMA 3A or VEGF165 were obtained as follow. Wells of high protein binding 96 well plates (Maxisorp, Nunc) were coated with purified traps diluted in PBS and blocked afterward with binding buffer (PBS containing 2% casein and 0.05% Tween 20). The SEMA3A-FC (R&D systems) or AP-VEGF165 ligands were diluted in binding buffer over an extensive range of concentrations and added to wells. Following an overnight incubation, wells were washed with PBS containing 0.05% tween. Bound SEMA3a-FC was detected using an HRP-linked anti-Human IgG (Biorad) and ECL substrate (Pierce). Alternatively, bound AP-VEGF165 was detected using CPD star substrate (Roche). The Chemiluminescent signal was acquired on a TECAN reader. Dissociation constant (KD) were determined by non-linear curve fitting using the Graph Pad prism software.

Assay [2] deals with T1, NRP1 trap AC. On the procedure:
as §1

Assay [3] concerns the target T2, NRP1 trap G. On the procedure:
as §1

The target of assay [4] is T3, NRP1 trap R. The protocol: as §1

Residue numbers refer to the chain shown, from its start. Numbers in names are those of the source.

What is called Kd is a measure of binding affinity in units of concentration. Higher therefore signals lower affinity.

For B1, in assay [1], the binding result is “no binding”. Turning to B2, in assay [1], the binding result was “no binding”. With B3, the dissociation constant (Kd) in assay [2] amounted to 4 nM; in assay [3], 0.8 nM; in assay [4] it was 6.15 nM.

For the origin of these results see patent US20240301429A1 (RSEM LIMITED PARTNERSHIP, published 2024).
